Laboratory results: PMC3777832

Biological target: xenopus Lgr4 ectodomain (residues 24-455) (xenopus)
Assay: SEC + other: dynamic light scattering

- stoichiometry N: 2
Substance: xenopus Lgr4 ectodomain (residues 24-455) (domain or fragment)
